Results on 17 molecules are retold here after patent US20230060095A1 (Regeneron, published 2023).

Changes are numbered by the printed parent chain.

T1: PRAME peptide on HLA-A*02:01 (human)
T1 peptide: SLLQHLIGL

T2: PRAME peptide on HLA-A*02:01 (human)
T2 peptide: RLDQLLRHV

T3: peptide on HLA-A*02:01 (human)
T3 peptide: SLLMWITQC

B1: PN42845 (TCR, V domains shown)
V domain 1: TQLLEQSPQFLSIQEGENLTVYCNSSSVFSSLQWYRQEPGEGPVLLVTVVTGGEVKKLKRLTFQFGDARKDSSLHITAAQPGDTGLYLCAGIRSNDYKLSFGAGTTVTVRA
V domain 2: EAQVTQNPRYLITVTGKKLTVTCSQNMNHEYMSWYRQDPGLGLRQIYYSMNVEVTDKGDVPEGYKVSRKEKRNFPLILESPSPNQTSLYFCASSSWTAHTEAFFGQGTRLTVV
B2: PN42815 (TCR, V domains shown)
V domain 1: GESVGLHLPTLSVQEGDNSIINCAYSNSASDYFIWYKQESGKGPQFIIDIRSNMDKRQGQRVTVLLNKTVKHLSLQIAATQPGDSAVYFCAENNYGQNFVFGPGTRLSVLP
V domain 2: EAQVTQNPRYLITVTGKKLTVTCSQNMNHEYMSWYRQDPGLGLRQIYYSMNVEVTDKGDVPEGYKVSRKEKRNFPLILESPSPNQTSLYFCASSLWDSSPLHFGNGTRLTVT
notes: the summary and claims print the pair as 893/805
B3: PN42441 (TCR, V domains shown)
V domain 1: DAKTTQPNSMESNEEEPVHLPCNHSTISGTDYIHWYRQLPSQGPEYVIHGLTSNVNNRMASLAIAEDRKSSTLILHRATLRDAAVYYCIRRPGNQFYFGTGTSLTVIP
V domain 2: B2 V domain 2 with D97T, S98G, P100E, L101A, H102F, N105Q, T112V
B4: PN42826 (TCR, V domains shown)
V domain 1: DQQVKQNSPSLSVQEGRISILNCDYTNSMFDYFLWYKKYPAEGPTFLISISSIKDKNEDGRFTVFLNKSAKHLSLHIVPSQPGDSAVYFCAASAGSARQLTFGSGTQLTVLP
V domain 2: B2 V domain 2 with W96Y, D97T, S98H, S99T, P100E, L101A, H102F, N105Q, T112V
B5: PN42895 (TCR, V domains shown)
V domain 1: B4 V domain 1 with N7S
V domain 2: B2 V domain 2 with D97S, S98N, S99T, P100E, L101A, H102F, N105Q, T112V
B6: PN42870 (TCR, V domains shown)
V domain 1: TQLLEQSPQFLSIQEGENLTVYCNSSSVFSSLQWYRQEPGEGPVLLVTVVTGGEVKKLKRLTFQFGDARKDSSLHITAAQPGDTGLYLCAENSGGGADGLTFGKGTHLIIQP
V domain 2: DAGVTQSPTHLIKTRGQQVTLRCSPKSGHDTVSWYQQALGQGPQFIFQYYEEEERQRGNFPDRFSGHQFPNYSSELNVNALLLGDSALYLCASSFTDYGYTFGSGTRLTVV
B7: PN42558 (TCR, V domains shown)
V domain 1: GIQVEQSPPDLILQEGANSTLRCNFSDSVNNLQWFHQNPWGQLINLFYIPSGTKQNGRLSATTVATERYSLLYISSSQTTDSGVYFCVLGGGSQGNLIFGKGTKLSVKP
V domain 2: B6 V domain 2
B8: PN42833 (TCR, V domains shown)
V domain 1: DAKTTQPPSMDCAEGRAANLPCNHSTISGNEYVYWYRQIHSQGPQYIIHGLKNNETNEMASLIITEDRKSSTLILPHATLRDTAVYYCIVRDTTSGTYKYIFGTGTRLKVLA
V domain 2: EAQVTQNPRYLITVTGKKLTVTCSQNMNHEYMSWYRQDPGLGLRQIYYSMNVEVTDKGDVPEGYKVSRKEKRNFPLILESPSPNQTSLYFCASSLSSTGFSPLHFGNGTRLTVT
B9: PN42450 (TCR, V domains shown)
V domain 1: AQRVTQPEKLLSVFKGAPVELKCNYSYSGSPELFWYVQYSRQRLQLLLRHISRESIKGFTADLNKGETSFHLKKPFAQEEDSAMYYCALGNTDKLIFGTGTRLQVFP
V domain 2: DVKVTQSSRYLVKRTGEKVFLECVQDMDHENMFWYRQDPGLGLRLIYFSYDVKMKEKGDIPEGYSVSREKKERFSLILESASTNQTSMYLCASSSPRTGWYGYTFGSGTRLTVV
B10: PN46871 (TCR, V domains shown)
V domain 1: KQEVTQIPAALSVPEGENLVLNCSFTDSAIYNLQWFRQDPGKGLTSLLLIQSSQREQTSGRLNASLDKSSGRSTLYIAASQPGDSATYLCAVEGTTDSWGKFQFGAGTQVVVTP
V domain 2: AAGVIQSPRHLIKEKRETATLKCYPIPRHDTVYWYQQGPGQDPQFLISFYEKMQSDKGSIPDRFSAQQFSDYHSELNMSSLELGDSALYFCASSSQGQPQHFGDGTRLSIL
notes: stained with anti-mouse TCR constant region antibody H57-597) and full-length chains were expressed on CHO cells
B11: PN46731 (TCR, V domains shown)
V domain 1: GENVEQHPSTLSVQEGDSAVIKCTYSDSASNYFPWYKQELGKRPQLIIDIRSNVGEKKDQRIAVTLNKTAKHFSLHITETQPEDSAVYFCAAWNYGQNFVFGPGTRLSVLP
V domain 2: B10 V domain 2 with S95L, Q96E, Q98S, P99E, Q100A, H101F, D104Q, S109T, I110V, L111V
notes: as for B10
B12: PN46853 (TCR, V domains shown)
V domain 1: ILNVEQSPQSLHVQEGDSTNFTCSFPSSNFYALHWYRWETAKSPEALFVMTLNGDEKKKGRISATLNTKEGYSYLYIKGSQPEDSATYLCACGGSGNTGKLIFGQGTTLQVKP
V domain 2: B10 V domain 2
notes: as for B10
B13: PN46777 (TCR, V domains shown)
V domain 1: AQTVTQSQPEMSVQEAETVTLSCTYDTSENNYYLFWYKQPPSRQMILVIRQEAYKQQNATENRFSVNFQKAAKSFSLKISDSQLGDTAMYFCALMEYGNKLVFGAGTILRVKS
V domain 2: DAGITQSPRYKITETGRQVTLMCHQTWSHSYMFWYRQDLGHGLRLIYYSAAADITDKGEVPDGYVVSRSKTENFPLTLESATRSQTSVYFCASSDGTGYYGYTFGSGTRLTVV
notes: as for B10
B14: PN46883 (TCR, V domains shown)
V domain 1: AQKVTQAQTEISVVEKEDVTLDCVYETRDTTYYLFWYKQPPSGELVFLIRRNSFDEQNEISGRYSWNFQKSTSSFNFTITASQVVDSAVYFCALSVSSYNTDKLIFGTGTRLQVFP
V domain 2: NAGVMQNPRHLVRRRGQEARLRCSPMKGHSHVYWYRQLPEEGLKFMVYLQKENIIDESGMPKERFSAEFPKEGPSILRIQQVVRGDSAAYFCASSHRDDTEAFFGQGTRLTVV
notes: as for B10
B15: PN46880 (TCR, V domains shown)
V domain 1: AQRVTQPEKLLSVFKGAPVELKCNYSYSGSPELFWYVQYSRQRLQLLLRHISRESIKGFTADLNKGETSFHLKKPFAQEEDSAMYYCALSGASGGSYIPTFGRGTSLIVHP
V domain 2: B14 V domain 2
notes: as for B10
B16: PN46857 (TCR, V domains shown)
V domain 1: AQKVTQATREISVVEKEDVTLDCVYETRDTTYYLFWYKQPPSGELVFLIRRNSFDEQNEISGRYSWNFQKSTSSFNFTITASQVVDSAVYFCALSEGYGNKLVFGAGTILRVKS
V domain 2: B14 V domain 2
notes: as for B10
B17: PN46909 (TCR, V domains shown)
V domain 1: AQTVTQSQPEMSVQEAETVTLSCTYDTSENNYYLFWYKQPPSRQMILVIRQEAYKQQNATENRFSVNFQKAAKSFSLKISDSQLGDTAMYFCAFDYGQNFVFGPGTRLSVLP
V domain 2: NAGVTQTPKFRILKIGQSMTLQCAQDMNHNYMYWYRQDPGMGLKLIYYSVGAGITDKGEVPNGYNVSRSTTEYFPLRLELAAPSQTSVYFCASSYGGGQTEAFFGQGTRLTVV
notes: as for B10

The target of the first assay is T1, PRAME peptide on HLA-A*02:01. As to the kind of experiment: multimer staining.
For B1, the binding result is “recognises”.
On the same count and under the same terms, the value for B2 was “recognises”; that for B3 was “recognises”.
On the same count and under the same terms, the value for B4 was “recognises”; that for B5 was “recognises”.
The same measure, in the same setting: the value for B6 was “recognises”.
In the case of B7, the binding result is given as “recognises”.
As to B8, the binding result is “recognises”.
Turning to B9, the binding result was “recognises”.

A further assay has as its target T2, PRAME peptide on HLA-A*02:01. As to the kind of experiment: multimer staining.
B10: the binding result is “recognises”.
Same read-out and setting: with B11 the entry was “recognises”; with B12, “recognises”; with B13, “recognises”.
B14: the binding result is on record as “recognises”.
The same measure, in the same setting: with B15 the entry was “recognises”.
The same measure, in the same setting: the value for B16 was “recognises”; that for B17 was “recognises”.

The target of a further assay is T4, soluble HLA:A2:PRAME (425-433) tetramer (human).
T4 construct: Commercial tetramer (MBL International); construct limits, biotin tag and streptavidin/fluorophore not described; also called PRAME/HLA tetramer reagent; PRAME (425-433)/HLA-A2
The assay can be described thus: flow cytometry, soluble pMHC tetramer on CHO cells expressing the TCR. In general terms: Flow cytometry measures light scatter and fluorescence of single cells or particles in a stream.
For B1, the “Cell Frequency ≥1000 MFI, ≥1% (% tetramer positive cells in the Ag+ gate)” value came to 10.5%.
The same measure, in the same setting: the value for B2 was 4.35%; that for B3 was 15.5%; that for B4 was 9.26%.
The same measure, in the same setting: with B5 the figure was 4.09%; with B6, 7.27%; with B7, 85.7%.
The same measure, in the same setting: the value for B8 was 6.86%; that for B9 was 62.2%.

The next assay has as its target T3, peptide on HLA-A*02:01. The assay can be described thus: activation reporter or marker.
As for B1, the binding result was “no recognition”.
Same read-out and setting: the value for B2 was “no recognition”.
Still for that read-out and setting: the value for B3 was “no recognition”.
For the molecule B4, the binding result is recorded as “no recognition”.
Same read-out and setting: with B5 the entry was “no recognition”; with B6, “no recognition”.
The same measure, in the same setting: the value for B7 was “no recognition”; that for B8 was “no recognition”; that for B9 was “no recognition”.

A further assay concerns the target T5, soluble HLA-A2:PRAME (312-320) tetramer (human).
T5 construct: Commercial tetramer (MBL International); construct limits, biotin tag and streptavidin/fluorophore not described; also called PRAME/HLA tetramer reagent
The assay can be described thus: flow cytometry, soluble pMHC tetramer on CHO cells expressing the TCR.
Take B10: the “Cell Frequency ≥1000 MFI, ≥1% (% tetramer positive cells in the Ag+ gate)” value was 44.7%.
For B11, the “Cell Frequency ≥1000 MFI, ≥1% (% tetramer positive cells in the Ag+ gate)” value amounted to 15.7%.
Still for that read-out and setting: the value for B12 was 35.4%; that for B13 was 98.9%.
Same read-out and setting: with B14 the figure was 64.7%; with B15, 31.9%.
Same read-out and setting: with B16 the figure was 53.9%.
B17: the “Cell Frequency ≥1000 MFI, ≥1% (% tetramer positive cells in the Ag+ gate)” value amounted to 52.6%.

A further assay has as its target HLA-A2/PRAME (425-433) on HLA-A2*01 HEK293T cells pulsed with PRAME 425-433 peptide (human). The assay can be described thus: cell-based or functional assay.
B1: the “EC50 (µM) of peptide, AP1 luciferase reporter in Jurkat cells expressing the TCR” value came out at 0.911 µM.
The same measure, in the same setting: with B2 the figure was 0.126 µM; with B3, 0.821 µM; with B4, 4.92 µM.
Same read-out and setting: with B5 the figure was 0.94 µM; with B6, 0.13 µM.
On the same count and under the same terms, the value for B7 was 0.261 µM.
Take B8: the “EC50 (µM) of peptide, AP1 luciferase reporter in Jurkat cells expressing the TCR” value came to 0.0479 µM.
The same measure, in the same setting: the value for B9 was 0.0336 µM.
